Test results published in US20250270332A1 (ANTLERA THERAPEUTICS, published 2025).

B1: FZD4 Agonist ANT21 (bispecific antibody)
heavy 1: EVQLVESGGGLVQPGGSLRLSCAASGFNFSSSSIHWVRQAPGKGLEWVASISSSYGYTYYADSVKGRFTISADTSKNTAYLQMNSLRAEDTAVYYCARGGSGVSHYGSVYYSWWALDYWGQGTLVTVSSGGGGSDIQMTQSPSSLSASVGDRVTITCRASQSVSSAVAWYQQKPGKAPKLLIYSASSLYSGVPSRFSGSRSGTDFTLTISSLQPEDFATYYCQQYWAYYSPITFGQGTKVEIKGGGGSGGGGSEPKTSDKTHTCPPCPAPELLGGPSVFLFPPKPKDTLMISRTPEVTCVVVAVSHEDPEVKFNWYVDGVEVHNAKTKPREEQYGSTYRVVSVLTVLHQDWLNGKEYKCKVSNKALPAPIEKTISKAKGQPREPMVFDLPPSREEMTKNQVSLWCMVKGFYPSDIAVEWESNGQPENNYKTTPPVLDSDGSFFLYSKLTVDKSRWQQGNVFSCSVMHEALHNHYTQKSLSLSPGKGGGSGGGSGGGSGGGSGSTGEVQLVESGGGLVQPGGSLRLSCAASGFTLSSYSMHWVRQAPGKGLEWVAYISSYYGYTYYADSVKGRFTISADTSKNTAYLQMNSLRAEDTAVYYCARPAPGHWGFDYWGQGTLVTVSSASTKGPSVFPLAPSSKSTSGGTAALGCLVKDYFPEPVTVSWNSGALTSGVHTFPAVLQSSGLYSLSSVVTVPSSSLGTQTYICNVNHKPSNTKVDKKVEPKSCDKTHT
heavy 2: EVQLVESGGGLVQPGGSLRLSCAASGFNFSSSSIHWVRQAPGKGLEWVASISSSYGYTYYADSVKGRFTISADTSKNTAYLQMNSLRAEDTAVYYCARSWAMDYWGQGTLVTVSSGGGGSDIQMTQSPSSLSASVGDRVTITCRASQSVSSAVAWYQQKPGKAPKLLIYSASSLYSGVPSRFSGSRSGTDFTLTISSLQPEDFATYYCQQSSYSLITFGQGTKVEIKGGGGSGGGGSEPKSSDKTHTCPPCPAPELLGGPSVFLFPPKPKDTLMISRTPEVTCVVVAVSHEDPEVKFNWYVDGVEVHNAKTKPREEQYGSTYRVVSVLTVLHQDWLNGKEYKCKVSNKALPAPIEKTISKAKGQPREPQVYTLPPIRELMTSNQVSLSCAVKGFYPSDIAVEWESNGQPENNYKTTPPVLDSDGSFFLVSKLTVDKSRWQQGNVFSCSVMHEALHNHYTQKSLSLSPGKGGGSGGGSGGGSGGGSGSTGEVQLVESGGGLVQPGGSLRLSCAASGFTLSSYSMHWVRQAPGKGLEWVAYISSYYGYTYYADSVKGRFTISADTSKNTAYLQMNSLRAEDTAVYYCARPAPGHWGFDYWGQGTLVTVSSASTKGPSVFPLAPSSKSTSGGTAALGCLVKDYFPEPVTVSWNSGALTSGVHTFPAVLQSSGLYSLSSVVTVPSSSLGTQTYICNVNHKPSNTKVDKKVEPKSCDKTHT
light: DIQMTQSPSSLSASVGDRVTITCRASQSVSSAVAWYQQKPGKAPKLLIYSASSLYSGVPSRFSGSRSGTDFTLTISSLQPEDFATYYCQQWYYAPITFGQGTKVEIKRTVAAPSVFIFPPSDEQLKSGTASVVCLLNNFYPREAKVQWKVDNALQSGNSQESVTEQDSKDSTYSLSSTLTLSKADYEKHKVYACEVTHQGLSSPVTKSFNRGEC
notes: Diabody-Fc-Fab format
B2: FZD4 Agonist ANT39 (bispecific antibody, human IgG1, kappa, N297G)
heavy 1: EVQLVESGGGLVQPGGSLRLSCAASGFDFTAYAMHWVRQAPGKGLEWVASIYPSGGYTAYADSVKGRFTISADTSKNTAYLQMNSLRAEDTAVYYCARRSYYFALDYWGQGTLVTVSSGGGGSDIQMTQSPSSLSASVGDRVTITCRASQSVSSAVAWYQQKPGKAPKLLIYSASSLYSGVPSRFSGSRSGTDFTLTISSLQPEDFATYYCQQYWAYYSPITFGQGTKVEIKGGGGSGGGGSEPKTSDKTHTCPPCPAPELLGGPSVFLFPPKPKDTLMISRTPEVTCVVVAVSHEDPEVKFNWYVDGVEVHNAKTKPREEQYGSTYRVVSVLTVLHQDWLNGKEYKCKVSNKALPAPIEKTISKAKGQPREPMVFDLPPSREEMTKNQVSLWCMVKGFYPSDIAVEWESNGQPENNYKTTPPVLDSDGSFFLYSKLTVDKSRWQQGNVFSCSVMHEALHNHYTQKSLSLSPGKGGGSGGGSGGGSGGGSGSTGEVQLVESGGGLVQPGGSLRLSCAASGFTLSSYSMHWVRQAPGKGLEWVAYISSYDSITDYADSVKGRFTISADTSKNTAYLQMNSLRAEDTAVYYCARPAVGHMAFDYWGQGTLVTVSSASTKGPSVFPLAPSSKSTSGGTAALGCLVKDYFPEPVTVSWNSGALTSGVHTFPAVLQSSGLYSLSSVVTVPSSSLGTQTYICNVNHKPSNTKVDKKVEPKSCDKTHT
heavy 2: EVQLVESGGGLVQPGGSLRLSCAASGFDFSSSSIHWVRQAPGKGLEWVASISSSYGYTYYADSVKGRFTISADTSKNTAYLQMNSLRAEDTAVYYCARSWAMDYWGQGTLVTVSSGGGGSDIQMTQSPSSLSASVGDRVTITCRASQSVSSAVAWYQQKPGKAPKLLIYSASDLYSGVPSRFSGSRSGTDFTLTISSLQPEDFATYYCQQYAGAGLITFGQGTKVEIKGGGGSGGGGSEPKSSDKTHTCPPCPAPELLGGPSVFLFPPKPKDTLMISRTPEVTCVVVAVSHEDPEVKFNWYVDGVEVHNAKTKPREEQYGSTYRVVSVLTVLHQDWLNGKEYKCKVSNKALPAPIEKTISKAKGQPREPQVYTLPPIRELMTSNQVSLSCAVKGFYPSDIAVEWESNGQPENNYKTTPPVLDSDGSFFLVSKLTVDKSRWQQGNVFSCSVMHEALHNHYTQKSLSLSPGKGGGSGGGSGGGSGGGSGSTGEVQLVESGGGLVQPGGSLRLSCAASGFTLSSYSMHWVRQAPGKGLEWVAYISSYDSITDYADSVKGRFTISADTSKNTAYLQMNSLRAEDTAVYYCARPAVGHMAFDYWGQGTLVTVSSASTKGPSVFPLAPSSKSTSGGTAALGCLVKDYFPEPVTVSWNSGALTSGVHTFPAVLQSSGLYSLSSVVTVPSSSLGTQTYICNVNHKPSNTKVDKKVEPKSCDKTHT
light: DIQMTQSPSSLSASVGDRVTITCRASQSVSSAVAWYQQKPGKAPKLLIYSASSLYSGVPSRFSGSRSGTDFTLTISSLQPEDFATYYCQQWYNAPITFGQGTKVEIKRTVAAPSVFIFPPSDEQLKSGTASVVCLLNNFYPREAKVQWKVDNALQSGNSQESVTEQDSKDSTYSLSSTLTLSKADYEKHKVYACEVTHQGLSSPVTKSFNRGEC
notes: Diabody-Fc-Fab format, DANG Fc

Target: T1, FZD4 recombinant extracellular domain, Fc fusion (FZD-Fc) (UniProt Q9ULV1 37-180)
T1 construct: extracellular domain; also called FZD4 ECD; not shown: Fc part of the FZD-Fc protein
T1 sequence (looked up): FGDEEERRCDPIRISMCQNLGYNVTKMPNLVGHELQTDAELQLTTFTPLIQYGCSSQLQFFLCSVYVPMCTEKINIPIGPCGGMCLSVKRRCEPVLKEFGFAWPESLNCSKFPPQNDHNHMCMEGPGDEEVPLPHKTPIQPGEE
Experiment: BLI (Octet), FZD-Fc captured on AHQ sensors, agonist in solution; apparent affinity

| Binder | Kd [nM] |
| --- | --- |
| B1 | 2.2 |
| B2 | 0.3 |
